Reference: paper PMC6899631, “An essential pentatricopeptide repeat protein in the apicomplexan remnant chloroplast”

T1: His6-TRX-PfPPR1 (Plasmodium falciparum, UniProt Q8IM30 121-608)
T1 sequence: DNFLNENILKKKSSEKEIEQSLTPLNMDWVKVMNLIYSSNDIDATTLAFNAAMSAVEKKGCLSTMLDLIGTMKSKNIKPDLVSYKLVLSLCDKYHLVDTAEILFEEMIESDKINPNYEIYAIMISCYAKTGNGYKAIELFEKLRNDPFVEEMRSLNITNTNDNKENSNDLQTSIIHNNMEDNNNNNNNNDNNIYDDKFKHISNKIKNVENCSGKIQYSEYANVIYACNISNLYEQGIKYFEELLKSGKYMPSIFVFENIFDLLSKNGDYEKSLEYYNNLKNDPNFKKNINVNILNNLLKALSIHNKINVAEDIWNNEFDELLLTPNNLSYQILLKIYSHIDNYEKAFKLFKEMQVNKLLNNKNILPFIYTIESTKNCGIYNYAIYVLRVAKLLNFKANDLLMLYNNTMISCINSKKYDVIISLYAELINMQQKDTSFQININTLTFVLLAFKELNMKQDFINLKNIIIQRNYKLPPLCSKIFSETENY


What was measured:
[1] = molecular target: His6-TRX-PfPPR1 (Plasmodium falciparum apicoplast pentatricopeptide repeat protein PPR1, minus the bipartite leader, with N-terminal TRX-His6 tag) (Plasmodium falciparum); assay: SEC; S200 10/300 analytical gel filtration column in 50 mM Tris pH 8.0, 200 mM NaCl, 5 mM DTT; sample in 10 mM HEPES pH 7.5, 20 mM KCl, 1 mM MgCl2, 1 mM DTT, 15 min at room temperature; control without RNA (with RNA 4 or RNA 5 the dimer eluted earlier, with RNA bound)
[2] = molecular target: PfPPR1 minus the His6-TRX tag (tag cleaved by HRV 3C protease) (Plasmodium falciparum); assay: AUC; sedimentation velocity, PfPPR1 minus His6-TRX tag at 1.8 mg/mL, continuous c(s) distribution model
His6-TRX-PfPPR1 = molecular target: T1, His6-TRX-PfPPR1; assay: pull-down; Pull-down: 10 mM HEPES pH 7.5, 20 mM KCl, 1 mM MgCl2, 1 mM DTT, room temperature 15 min; 400 nM biotinylated RNA, 800 nM protein (Results state 1:1 molar). Gel; details: protein: recombinant; tags: N-terminal TRX-His6 (HRV 3C cleavable); chain copies: 2; label: 3' biotin (pull-down)

Row | Molecule | binding result (His6-TRX-PfPPR1) | also measured
1 | His6-TRX-PfPPR1 (Plasmodium falciparum apicoplast pentatricopeptide repeat protein PPR1, minus the bipartite leader, with N-terminal TRX-His6 tag) (natural protein) | – | stoichiometry N [1]: 2
2 | PfPPR1 minus the His6-TRX tag (tag cleaved by HRV 3C protease) (natural protein) | – | stoichiometry N [2]: 2
3 | ACGACAUGACGAGGUCGGA (ssRNA) [RNA oligo 3] | no binding | –
4 | ACGACAUUAUAUGGUCGGA (ssRNA) [RNA oligo 1] | binds | –
5 | ACGACAUUAUAAGGUCGGA (ssRNA) [RNA oligo 2] | binds | –
